Test results: patent US7531333B2, “Process for producing isoprenoid compounds by microorganisms and a method for screening compounds with antibiotic or weeding activity” (Kyowa Hakko Kogyo Co., Ltd., priority 1998, dated 2009)

Substrate: CC(=O)[C@@H](O)[C@H](O)COP(=O)(O)O
Experiment: Enzymatic activity of yaeM gene product (NADPH decrease, absorbance at 340 nm)
Type: biochemical, E. coli
Conditions: other: in the presence of MnCl2; pH 7.5; 37.0 °C
Method: 0.3 mol/l of 1-deoxy-D-xylulose 5-phosphate (final concentration) synthesized as described above was added to 1 ml of a reaction solution containing 100 mol/l Tris-hydrochloric acid (pH 7.5), 1 mol/l MmCl2, 0.3 mol/l NADPH and yaeM gene product obtained in Example 8 (2) ? , and then incubated at 37° C.
The enzymological characteristics of 1-deoxy-D-xylulose 5-phosphate reductoisomerase were examined using 1 ml of the reaction system as described in Example 8 (2) ? . Here, 1 unit is defined as the activity to oxidize 1 mmol of NADPH per a minute.

B1: 1-deoxy-D-xylulose 5-phosphate reductoisomerase (Escherichia coli K-12) (protein)
chain: MKQLTILGSTGSIGCSTLDVVRHNPEHFRVVALVAGKNVTRMVEQCLEFSPRYAVMDDEASAKLLKTMLQQQGSRTEVLSGQQAACDMAALEDVDQVMAAIVGAAGLLPTLAAIRAGKTILLANKESLVTCGRLFMDAVKQSKAQLLPVDSEHNAIFQSLPQPIQHNLGYADLEQNGVVSILLTGSGGPFRETPLRDLATMTPDQACRHPNWSMGRKISVDSATMMNKGLEYIEARWLFNASASQMEVLIHPQSVIHSMVRYQDGSVLAQLGEPDMVRQLPTPWAWPNRVNSGVKPLDFCKLSALTFAAPDYDRYPCLKLAMEAFEQGQAATTALNAANEITVAAFLAQQIRFTDIAALNLSVLEKMDMREPQCVDDVLSVDANAREVARKEVMRLAS
notes: made in house; host or cells: E. coli M15/pREP4
Km: 249 µM
